Results from publication PMC3817168.

Target: ChrB-His6 (Ochrobactrum tritici 5bvl1)
Experiment: cross-linking; 8 µg purified protein, 0.1% glutaraldehyde, 20 mM NaCl, 10 mM KCl, 2 mM DTT, 20 mM Hepes pH 7.5, 30°C, 2 to 60 min; read by 10% SDS-PAGE or anti-His immunoblot; also with chr promoter DNA and/or Cr(VI), without effect

- stoichiometry N: 2
Substance: ChrB-His6 (natural protein)
